Article PMC4484057, “Daple is a novel non-receptor GEF required for trimeric G protein activation in Wnt signaling” (eLife, 2015)

B1: His-Daple-CT (aa 1650–2028) (domain or fragment, human, UniProt Q9P219-1 1650-2028, looked up)
chain: GTAPPYVGVRPCSASPSSEMVTLEEFLEESNRSSPTHDTPSCRDDLLSDYFRKASDPPAIGGQPGPPAKKEGAKMPTNFVAPTVKMAAPTSEGRPLKPGQYVKPNFRLTEAEAPPSVAPRQAQPPQSLSLGRPRQAPVPPASHAPASRSASLSRAFSLASADLLRASGPEACKQESPQKLGAPEALGGRETGSHTLQSPAPPSSHSLARERTPLVGKAGSSCQGPGPRSRPLDTRRFSLAPPKEERLAPLHQSATAPAIATAGAGAAAAGSGSNSQLLHFSPAAAPAARTKPKAPPRSGEVATITPVRAGLSLSEGDGVPGQGCSEGLPAKSPGRSPDLAPHLGRALEDCSRGSVSKSSPASPEPGGDPQTVWYEYGCV
notes: Cloned from myc-Daple pcDNA 3.1 into pET28b between NdeI/EcoRI; also called His-Daple-CT WT; Daple-CT-WT; source: E. coli BL21 (DE3), purified (HisPur Cobalt Resin)
B5: His-Gαi3 (natural protein, rat, UniProt P08753 1-354, looked up)
chain: MGCTLSAEDKAAVERSKMIDRNLREDGEKAAKEVKLLLLGAGESGKSTIVKQMKIIHEDGYSEDECKQYKVVVYSNTIQSIIAIIRAMGRLKIDFGEAARADDARQLFVLAGSAEEGVMTSELAGVIKRLWRDGGVQACFSRSREYQLNDSASYYLNDLDRISQTNYIPTQQDVLRTRVKTTGIVETHFTFKELYFKMFDVGGQRSERKKWIHCFEGVTAIIFCVALSDYDLVLAEDEEMNRMHESMKLFDSICNNKWFTDTSIILFLNKKDLFEEKIKRSPLTICYPEYTGSNTYEEAAAYIQCQFEDLNRRKDTKEVYTHFTCATDTKNVQFVFDAVTDVIIKNNLKECGLY
notes: also called His-Gαi3-GDP; recombinant His-Gαi3; source: E. coli BL21 (DE3), purified (HisPur Cobalt Resin)

Experiments:
GST-Gαi3 = molecular target: T1, GST-Gαi3 (rat, UniProt P08753 1-354); experiment: pull-down; Gβγ displacement: GST-Gαi3·Gβγ preformed on glutathione-agarose beads (∼0.4 µM GST-Gαi3), 0.05–1 µM His-Daple-CT, 5 hr at 4°C, GDP; bound Gβγ by immunoblot fitted to a single-site competition curve; conditions: both partners purified
T1 construct: Gαi3, rat, in pGEX-4T-1; Loaded with GDP, GDP + AlF4- or GTPγS as the assay says; also called GST-Gαi3 WT; source: E. coli BL21 (DE3), purified (glutathione-Sepharose 4B)

His-Gαi3 [1] = molecular target: B5; experiment: cell-based or functional assay
[2] = molecular target: B1; experiment: pull-down; GST-Gα protein (5 µg) preloaded with GDP (inactive) on glutathione beads; purified His-Daple-CT (3 µg); 4 hr at 4°C; 50 mM Tris-HCl pH 7.4, 100 mM NaCl, 0.4% NP-40, 10 mM MgCl2, 5 mM EDTA, 30 µM GDP, 2 mM DTT; immunoblot; conditions: both partners purified
GST-Daple-CT = molecular target: T2, GST-Daple-CT (human, UniProt Q9P219-1 1650-2028); experiment: pull-down; GST-Daple-CT or GST-GIV-CT immobilised on glutathione-agarose beads; 0.01–3 µM purified His-Gαi3 (GDP-loaded); band intensities of immunoblots fitted to a single-site binding hyperbola; four independent experiments; conditions: both partners purified
T2 construct: Daple (CCDC88C), human, C-terminal region; pGEX-4T construct; also called GST-Daple-CT WT; source: E. coli BL21 (DE3), purified (glutathione-Sepharose 4B)
T2 sequence (looked up): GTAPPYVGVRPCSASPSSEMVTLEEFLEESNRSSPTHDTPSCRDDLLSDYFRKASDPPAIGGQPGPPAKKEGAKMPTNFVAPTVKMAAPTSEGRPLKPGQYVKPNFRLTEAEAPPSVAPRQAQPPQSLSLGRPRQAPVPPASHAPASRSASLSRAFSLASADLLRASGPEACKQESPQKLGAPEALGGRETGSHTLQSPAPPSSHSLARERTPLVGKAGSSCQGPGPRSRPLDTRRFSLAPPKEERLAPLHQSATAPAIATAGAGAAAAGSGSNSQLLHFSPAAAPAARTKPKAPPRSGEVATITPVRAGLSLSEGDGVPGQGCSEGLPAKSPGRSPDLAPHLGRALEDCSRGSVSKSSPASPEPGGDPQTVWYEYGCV

His-Gαi3 [3] = molecular target: B5; experiment: as above; conditions: both partners purified

## B1
GST-Gαi3
  IC50: 160 nM
His-Gαi3 [1]
  steady-state GTPase activity of His-Gαi3 with 2 µM His-Daple-CT, over the basal activity: ~3 fold

B2: GST-Gαi2 (natural protein, rat, UniProt P04897 1-355, looked up)
chain: MGCTVSAEDKAAAERSKMIDKNLREDGEKAAREVKLLLLGAGESGKSTIVKQMKIIHEDGYSEEECRQYRAVVYSNTIQSIMAIVKAMGNLQIDFADPQRADDARQLFALSCAAEEQGMLPEDLSGVIRRLWADHGVQACFGRSREYQLNDSAAYYLNDLERIAQSDYIPTQQDVLRTRVKTTGIVETHFTFKDLHFKMFDVGGQRSERKKWIHCFEGVTAIIFCVALSAYDLVLAEDEEMNRMHESMKLFDSICNNKWFTDTSIILFLNKKDLFEEKITQSPLTICFPEYTGANKYDEAASYIQSKFEDLNKRKDTKEIYTHFTCATDTKNVQFVFDAVTDVIIKNNLKDCGLF
notes: Gαi2, rat, in pGEX-4T-1; also called GST-fused Gαi2; source: E. coli BL21 (DE3), purified (glutathione-Sepharose 4B)
[2]
  binding result: binds

B3: GST-Gαi3 K248M (natural protein, rat, UniProt P08753 1-354, looked up)
chain: MGCTLSAEDKAAVERSKMIDRNLREDGEKAAKEVKLLLLGAGESGKSTIVKQMKIIHEDGYSEDECKQYKVVVYSNTIQSIIAIIRAMGRLKIDFGEAARADDARQLFVLAGSAEEGVMTSELAGVIKRLWRDGGVQACFSRSREYQLNDSASYYLNDLDRISQTNYIPTQQDVLRTRVKTTGIVETHFTFKELYFKMFDVGGQRSERKKWIHCFEGVTAIIFCVALSDYDLVLAEDEEMNRMHESMMLFDSICNNKWFTDTSIILFLNKKDLFEEKIKRSPLTICYPEYTGSNTYEEAAAYIQCQFEDLNRRKDTKEVYTHFTCATDTKNVQFVFDAVTDVIIKNNLKECGLY
notes: Gαi3, rat, K248M; source: E. coli BL21 (DE3), purified (glutathione-Sepharose 4B)
[2]
  binding result: binds

B4: GST-Gαi3 W258F (natural protein, rat, UniProt P08753 1-354, looked up)
chain: MGCTLSAEDKAAVERSKMIDRNLREDGEKAAKEVKLLLLGAGESGKSTIVKQMKIIHEDGYSEDECKQYKVVVYSNTIQSIIAIIRAMGRLKIDFGEAARADDARQLFVLAGSAEEGVMTSELAGVIKRLWRDGGVQACFSRSREYQLNDSASYYLNDLDRISQTNYIPTQQDVLRTRVKTTGIVETHFTFKELYFKMFDVGGQRSERKKWIHCFEGVTAIIFCVALSDYDLVLAEDEEMNRMHESMKLFDSICNNKFFTDTSIILFLNKKDLFEEKIKRSPLTICYPEYTGSNTYEEAAAYIQCQFEDLNRRKDTKEVYTHFTCATDTKNVQFVFDAVTDVIIKNNLKECGLY
notes: Gαi3, rat, W258F; source: E. coli BL21 (DE3), purified (glutathione-Sepharose 4B)
[2]
  binding result: binds

## B5
GST-Daple-CT
  Kd: 110 nM

B6: GST-GIV-CT (aa 1671–1755) (domain or fragment, UniProt Q3V6T2 1671-1755, looked up)
chain: IKTGSPGSEVVTLQQFLEESNKLTSVQIKSSSQENLLDEVMKSLSVSSDFLGKDKPVSCGLARSVSGKTPGDFYDRRTTKPEFLR
notes: GIV (CCDC88A, Girdin), aa 1671–1755, holds the GBA motif; also called GST-GIV CT 1671–1755 aa; source: E. coli BL21 (DE3), purified (glutathione-Sepharose 4B)
His-Gαi3 [3]
  Kd: 240 nM
